This is an account of results in patent US20110070235A1.

This assay deals with M2e. The experiment in a line: peptide ELISA, mAb 5 ug/mL. (In an ELISA, binding on a coated surface is turned into a signal by an enzyme label.)

Consider TCN-031 (23K12) (antibody), for which the ELISA A450 was 0.43.

Substance “chimeric mouse V-region/human IgG1 kappa 14C2 antibody” displayed an ELISA A450 of 3.98.
